Holding throughout (assay): pull-down
The target in one test is T1, MBP-Bub2 (yeast, UniProt P26448 1-306).
T1 sequence: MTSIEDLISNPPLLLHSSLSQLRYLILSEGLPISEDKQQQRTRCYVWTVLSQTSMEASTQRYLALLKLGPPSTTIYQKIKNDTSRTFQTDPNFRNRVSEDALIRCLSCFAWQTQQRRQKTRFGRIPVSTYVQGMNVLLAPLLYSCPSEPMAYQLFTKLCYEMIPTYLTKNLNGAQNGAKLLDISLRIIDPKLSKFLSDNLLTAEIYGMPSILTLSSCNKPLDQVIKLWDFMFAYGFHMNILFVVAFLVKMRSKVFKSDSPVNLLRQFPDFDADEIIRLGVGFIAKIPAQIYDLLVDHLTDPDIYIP

The next test concerns the target T2, MBP-Bfa1 (yeast, UniProt P47113 1-574).
T2 sequence: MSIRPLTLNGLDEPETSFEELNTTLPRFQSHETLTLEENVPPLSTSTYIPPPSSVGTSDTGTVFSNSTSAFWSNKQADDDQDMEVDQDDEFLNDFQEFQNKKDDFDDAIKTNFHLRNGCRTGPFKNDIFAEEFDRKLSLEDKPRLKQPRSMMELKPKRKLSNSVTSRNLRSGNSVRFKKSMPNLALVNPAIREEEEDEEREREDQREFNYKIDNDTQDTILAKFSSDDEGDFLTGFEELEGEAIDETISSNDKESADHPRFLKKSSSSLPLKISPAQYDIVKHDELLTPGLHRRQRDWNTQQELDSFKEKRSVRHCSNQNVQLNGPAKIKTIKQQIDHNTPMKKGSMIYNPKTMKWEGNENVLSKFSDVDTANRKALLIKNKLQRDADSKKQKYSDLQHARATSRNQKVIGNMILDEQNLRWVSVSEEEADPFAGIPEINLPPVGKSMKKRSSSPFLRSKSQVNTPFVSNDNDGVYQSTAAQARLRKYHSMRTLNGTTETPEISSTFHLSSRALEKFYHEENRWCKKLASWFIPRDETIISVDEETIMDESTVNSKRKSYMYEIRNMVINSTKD

Test [1] concerns the target T3, NH2-terminal domain of Net1 (Net1 1-600) (yeast, UniProt P47035 1-600).
T3 sequence: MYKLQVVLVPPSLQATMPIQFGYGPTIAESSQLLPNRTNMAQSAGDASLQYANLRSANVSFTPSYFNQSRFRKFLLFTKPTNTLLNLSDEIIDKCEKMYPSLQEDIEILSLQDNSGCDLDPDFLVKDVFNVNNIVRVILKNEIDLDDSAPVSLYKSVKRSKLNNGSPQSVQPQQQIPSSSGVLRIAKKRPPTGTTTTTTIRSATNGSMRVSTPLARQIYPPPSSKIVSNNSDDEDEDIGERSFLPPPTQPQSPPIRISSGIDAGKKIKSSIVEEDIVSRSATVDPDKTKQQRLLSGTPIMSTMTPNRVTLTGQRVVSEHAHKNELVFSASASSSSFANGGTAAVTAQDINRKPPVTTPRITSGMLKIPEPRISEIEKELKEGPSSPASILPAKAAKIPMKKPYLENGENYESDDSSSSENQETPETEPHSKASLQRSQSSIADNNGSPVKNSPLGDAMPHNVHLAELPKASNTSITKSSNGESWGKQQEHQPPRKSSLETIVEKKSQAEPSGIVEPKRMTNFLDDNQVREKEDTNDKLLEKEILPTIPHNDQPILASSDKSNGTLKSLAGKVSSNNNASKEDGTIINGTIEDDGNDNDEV

B1: His6-Tem1 (natural protein)
chain: MATPSTGANNSIPAVRNQVEVQVGLVGDAQVGKTSLMVKYVQNIYDKEYTQTLGVNFLKRKVSIRSTDIIFSIMDLGGQREFINMLPIATVGSSVIIFLFDLTRPETLSSIKEWYRQAYGLNDSAIPILVGTKYDLLIDLDPEYQEQISRTSMKYAQVMNAPLIFCSTAKSINIQKIFKIALAKIFNLTLTIPEINEIGDPLLIYKHLGGQQHRHHNKSQDRKSHNIRKPSSSPSSKAPSPGVNT
Turning to B1, the binding result with MBP-Bub2 and in the test with MBP-Bfa1 was “binds” in each case.

B2: MBP-Cdc14 (natural protein)
chain: MRRSVYLDNTIEFLRGRVYLGAYDYTPEDTDELVFFTVEDAIFYNSFHLDFGPMNIGHLYRFAVIFHEILNDPENANKAVVFYSSASTRQRANAACMLCCYMILVQAWTPHQVLQPLAQVDPPFMPFRDAGYSNADFEITIQDVVYGVWRAKEKGLIDLHSFNLESYEKYEHVEFGDFNVLTPDFIAFASPQEDHPKGYLATKSSHLNQPFKSVLNFFANNNVQLVVRLNSHLYNKKHFEDIGIQHLDLIFEDGTCPDLSIVKNFVGAAETIIKRGGKIAVHCKAGLGRTGCLIGAHLIYTYGFTANECIGFLRFIRPGMVVGPQQHWLYLHQNDFREWKYTTRISLKPSEAIGGLYPLISLEEYRLQKKKLKDDKRVAQNNIEGELRDLTMTPPSNGHGALSARNSSQPSTANNGSNSFKSSAVPQTSPGQPRKGQNGSNTIEDINNNRNPTSHANRKVVIESNNSDDESMQDTNGTSNHYPKVSRKKNDISSASSSRMEDNEPSATNINNAADDTILRQLLPKNRRVTSGRRTTSAAGGIRKISGSIKK
Regarding B2, the binding result in test [1] is reported as “binds”.

B3: GST-Bub2 (natural protein)
chain: T1 sequence
Regarding B3, in the test with MBP-Bfa1, the binding result was “binds”.

Source of the values: publication PMC2172333 (The Journal of Cell Biology, 2004).
